Results on one substance are retold here after PMC8688910.

In this test the target is IpaB (invasion plasmid antigen B), C-terminal his6-tag, produced in CFPS (S. flexneri 2a). The experiment in a line: SEC-MALS; Superdex200 10/30 Increase, 50 mM Tris pH 8, 150 mM NaCl, 0.1% (v/v) LDAO, 0.5 mL/min, column 25 °C, about 50-100 μg injected. A general note: SEC sorts molecules by how far they enter the pores of the column.

The stoichiometry N is a count of units in the complex or per binding partner.

Consider “IpaB (invasion plasmid antigen B), C-terminal his6-tag, produced in CFPS (natural protein)”, for which the stoichiometry N came out at 2.
